In paper PMC10965115:
Where two headings read alike, the source gives them in different places.

Key:
Assay in all cases: BLI
[1] = biological target: IgG1 mAb (human)
[2] = biological target: IgG1 RUBY v9 #15 (human)
[3] = biological target: IgG1 LALA RUBY #10 (human)
[4] = biological target: IgG2 RUBY v9 #16 (human)
[5] = biological target: IgG2 mAb (human)
[6] = biological target: IgG1 LALA mAb (human)
[7] = biological target: IgG1 LALA RUBY v9 #2 (human)
[8] = biological target: IgG1 mAb (human); remark: listed apart in the source
[9] = biological target: IgG1 RUBY v9 #15 (human); remark: listed apart in the source
[10] = biological target: IgG2 RUBY v9 #16 (human); remark: listed apart in the source
[11] = biological target: IgG2 mAb (human); remark: listed apart in the source

Molecule: hFcγRIIIa 176 V (from UniProt P08637) (receptor)
- Kd [1]: 50 nM
- koff [1]: 0.03 s⁻¹
- kon [1]: 600000 M⁻¹ s⁻¹
- Kd [2]: 30 nM
- koff [2]: 0.03 s⁻¹
- kon [2]: 1e+06 M⁻¹ s⁻¹

Molecule: recombinant mouse FcRn (from UniProt Q61559) (receptor)
- Kd [3]: 70 nM
- koff [3]: 0.007 s⁻¹
- kon [3]: 100000 M⁻¹ s⁻¹

Molecule: recombinant human FcRn (from UniProt P55899) (receptor)
- Kd [4]: 1000 nM
- koff [4]: 0.2 s⁻¹
- kon [4]: 200000 M⁻¹ s⁻¹
- Kd [5]: 600 nM
- koff [5]: 0.1 s⁻¹
- kon [5]: 200000 M⁻¹ s⁻¹
- Kd [3]: 600 nM
- koff [3]: 0.08 s⁻¹
- kon [3]: 100000 M⁻¹ s⁻¹
- Kd [1]: 500 nM
- koff [1]: 0.05 s⁻¹
- kon [1]: 100000 M⁻¹ s⁻¹
- Kd [6]: 500 nM
- koff [6]: 0.1 s⁻¹
- kon [6]: 200000 M⁻¹ s⁻¹
- Kd [2]: 600 nM
- koff [2]: 0.08 s⁻¹
- kon [2]: 100000 M⁻¹ s⁻¹

Molecule: mFcγRIV (from UniProt A0A0B4J1G0) (receptor)
- Kd [1]: 50 nM
- kon [1]: 400000 M⁻¹ s⁻¹
- Kd [2]: 40 nM

Molecule: hFcγRI (from UniProt P12314) (receptor)
- Kd [7]: 40 nM

Molecule: hFcγRIIa (from UniProt P12318) (receptor)
- Kd [1]: 300 nM

B1: mFcγRI (receptor)
chain: EVVNATKAVITLQPPWVSIFQKENVTLWCEGPHLPGDSSTQWFINGTAVQISTPSYSIPEASFQDSGEYRCQIGSSMPSDPVQLQIHNDWLLLQASRRVLTEGEPLALRCHGWKNKLVYNVVFYRNGKSFQFSSDSEVAILKTNLSHSGIYHCSGTGRHRYTSAGVSITVKELFTTPVLRASVSSPFPEGSLVTLNCETNLLLQRPGLQLHFSFYVGSKILEYRNTSSEYHIARAEREDAGFYWCEVATEDSSVLKRSPELELQVLGPQSSAP
- Kd [8]: 40 nM
- koff [8]: 0.02 s⁻¹
- kon [8]: 600000 M⁻¹ s⁻¹
- Kd [9]: 40 nM
- koff [9]: 0.03 s⁻¹
- kon [9]: 700000 M⁻¹ s⁻¹

B2: mFcγRIII (receptor)
chain: ALPKAVVKLDPPWIQVLKEDMVTLMCEGTHNPGNSSTQWFHNGRSIRSQVQASYTFKATVNDSGEYRCQMEQTRLSDPVDLGVISDWLLLQTPQRVFLEGETITLRCHSWRNKLLNRISFFHNEKSVRYHHYKSNFSIPKANHSHSGDYYCKGSLGSTQHQSKPVTITVQDPATTSSISLVWYHT
- Kd [10]: 10 nM
- koff [10]: 0.006 s⁻¹
- kon [10]: 600000 M⁻¹ s⁻¹
- Kd [11]: 10 nM
- koff [11]: 0.008 s⁻¹
- kon [11]: 700000 M⁻¹ s⁻¹
- Kd [8]: 20 nM
- koff [8]: 0.006 s⁻¹
- kon [8]: 400000 M⁻¹ s⁻¹
- Kd [9]: 10 nM
- koff [9]: 0.01 s⁻¹
- kon [9]: 700000 M⁻¹ s⁻¹
